Measured values reported in patent US11661676B2, “Cellular high throughput encapsulation for screening or selection” (Universität Zürich, priority 2012, dated 2023).

Experiment: Thermostability assay of ADRA1A derived clones ([3H]prazosin binding after heat challenge)
Assay type: physicochemical
Settings: PBS-E(DCC), no ligand during solubilization, even at 20° C.
Experimental: Detergent-stable ADRA1A library members were selected with FACS using 200 nM BODIPY FL prazosin. (FIG. 8a) 21 selected clones were expressed individually, solubilized and assayed for ligand binding activity after 3 hours in PBS-E(DCC). (FIG. 8b) The top 4 receptors were solubilized in PBS-E(DCC) for 3 h at 20° C. in the absence of ligand. Solubilized receptors were captured from the supernatant with streptavidin paramagnetic beads at 4° C. for 1 h. ADRA1ADCCA3 (black circles), ADRA1ADCCG4 (grey open squares), ADRA1ADCCD7 (black crosses) or ADRA1ADCCD8 (grey open circles) coated beads were either treated with 20 nM [^3H]prazosin for 1 h before being thermally challenged for 30 min at increasing temperatures or […] treated with 20 nM [^3H]prazosin after heating in the absence of ligand. […] Parallel measurements were taken for every receptor in the presence of 10 μM unlabeled prazosin as a competitor to determine the specific […] signal. Data points are plotted as the mean of duplicate measurements, 100% represents the signal measured after heating at 20° C. for 30 min. Error bars indicate the standard error of the mean.
For ADRA1A derived clones, expression and sonication was conducted as above, but the pellet was solubilized in PBS-E(DCC) containing 50 mg/ml chicken lysozyme at 20° C. with vigorous shaking for 3 h in the absence of ligand. […]

B1: wild-type ADRA1A: wild-type alpha 1A adrenergic receptor, parental receptor (protein, UniProt P35348 1-466, looked up)
Alpha-1A adrenergic receptor: MVFLSGNASDSSNCTQPPAPVNISKAILLGVILGGLILFGVLGNILVILSVACHRHLHSVTHYYIVNLAVADLLLTSTVLPFSAIFEVLGYWAFGRVFCNIWAAVDVLCCTASIMGLCIISIDRYIGVSYPLRYPTIVTQRRGLMALLCVWALSLVISIGPLFGWRQPAPEDETICQINEEPGYVLFSALGSFYLPLAIILVMYCRVYVVAKRESRGLKSGLKTDKSDSEQVTLRIHRKNAPAGGSGMASAKTKTHFSVRLLKFSREKKAAKTLGIVVGCFVLCWLPFFLVMPIGSFFPDFKPSETVFKIVFWLGYLNSCINPIIYPCSSQEFKKAFQNVLRIQCLCRKQSSKHALGYTLHPPSQAVEGQHKDMVRIPVGSRETFYRISKTDGVCEWKFFSSMPRGSARITVSKDQSSCTTARVRSKSFLQVCCCVGPSTPSLDKNHQVPTIKVHTISLSENGEEV
In the case of B1, the “ligand binding signal when solubilized in the absence of ligand” value is reported as “no significant fluorescence signal was obtained” and the “ligand binding signal when solubilized in the absence of ligand” value (listed as ADRA1A) is reported as “No significant signal could be measured”.
